Patent US6706762, “Methods for the use of inhibitors of co-repressors for the treatment of neoplastic diseases” (The Salk Institute for Biological Studies)

Key:
[1] = biological target: RARα 411/RXRα heterodimer (Homo sapiens, UniProt P10276;P19793 P10276:1-410,P19793:1-462, RARα stop codon introduced at amino acid 411); assay: EMSA; with GST-SMRT-IDII; impaired dissociation of SMRT by ATRA; conditions: label: 32P
[2] = biological target: RARα/RXRα heterodimer (UniProt P10276;P19793 P10276:1-462,P19793:1-462); assay: EMSA; with GST-SMRT-IDII; SMRT dissociated by ATRA; 100 mM KCl, 16.7 mM Tris pH 7.5, poly(dI:dC), room temperature; conditions: label: 32P
Description: The protein-DNA complexes were then resolved on a 4.5% native polyacrylamide gel and visualized by autoradiography.

RARα 411/RXRα heterodimer, sequence (P10276 1-410, change not shown, chain 1 of 2): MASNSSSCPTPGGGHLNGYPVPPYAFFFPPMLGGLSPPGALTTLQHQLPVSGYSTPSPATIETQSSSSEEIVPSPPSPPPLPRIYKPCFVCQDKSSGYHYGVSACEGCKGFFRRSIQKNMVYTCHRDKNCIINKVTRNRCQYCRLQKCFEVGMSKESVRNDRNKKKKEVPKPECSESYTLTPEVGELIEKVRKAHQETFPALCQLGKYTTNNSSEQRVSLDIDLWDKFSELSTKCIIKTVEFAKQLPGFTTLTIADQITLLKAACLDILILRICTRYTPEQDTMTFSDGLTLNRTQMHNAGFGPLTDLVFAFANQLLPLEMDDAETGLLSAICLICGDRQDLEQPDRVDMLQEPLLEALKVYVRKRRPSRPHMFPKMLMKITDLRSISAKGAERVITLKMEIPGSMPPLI
RARα 411/RXRα heterodimer, sequence (P19793 whole entry, change not shown, chain 2 of 2): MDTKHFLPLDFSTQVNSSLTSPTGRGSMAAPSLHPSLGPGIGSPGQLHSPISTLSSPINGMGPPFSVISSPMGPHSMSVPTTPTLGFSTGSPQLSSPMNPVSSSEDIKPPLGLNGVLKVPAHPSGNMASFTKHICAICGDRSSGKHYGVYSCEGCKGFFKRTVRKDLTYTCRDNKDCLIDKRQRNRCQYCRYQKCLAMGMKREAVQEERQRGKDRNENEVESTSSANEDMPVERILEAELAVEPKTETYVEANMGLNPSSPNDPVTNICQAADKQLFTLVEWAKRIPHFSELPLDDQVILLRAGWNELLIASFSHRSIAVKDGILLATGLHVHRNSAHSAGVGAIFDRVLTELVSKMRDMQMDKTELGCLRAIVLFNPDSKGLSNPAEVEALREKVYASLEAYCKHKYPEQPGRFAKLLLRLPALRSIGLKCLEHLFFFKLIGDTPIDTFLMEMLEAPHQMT
RARα/RXRα heterodimer, sequence (P10276 whole entry, chain 1 of 2): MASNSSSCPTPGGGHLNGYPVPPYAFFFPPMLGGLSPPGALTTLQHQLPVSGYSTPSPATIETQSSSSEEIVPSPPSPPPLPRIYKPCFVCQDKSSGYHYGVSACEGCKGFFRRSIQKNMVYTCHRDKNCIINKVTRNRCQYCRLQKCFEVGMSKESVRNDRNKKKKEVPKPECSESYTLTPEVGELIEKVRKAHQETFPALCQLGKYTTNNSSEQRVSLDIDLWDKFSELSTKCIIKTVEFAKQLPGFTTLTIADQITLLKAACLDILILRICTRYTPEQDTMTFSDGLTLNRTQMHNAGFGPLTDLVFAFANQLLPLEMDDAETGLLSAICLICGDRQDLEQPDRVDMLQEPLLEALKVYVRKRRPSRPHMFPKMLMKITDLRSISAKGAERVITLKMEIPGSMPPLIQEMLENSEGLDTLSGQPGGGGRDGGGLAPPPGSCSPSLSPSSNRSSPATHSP
RARα/RXRα heterodimer, sequence (P19793 whole entry, chain 2 of 2): as the sequence (P19793 whole entry, change not shown, chain 2 of 2) above

B1: DR5 retinoid response element (dsDNA)
DNA 1: TCGACTCAGGTCACCACGAGGTCAGAGTC
DNA 2: GACTCTGACCTCGTGGTGACCTGAGTCGA
[1]
  binding result: binds
[2]
  binding result: binds
